Data reported in patent US20230121197A1, “ANTIBODIES SPECIFICALLY BINDING THE CARBOXYMETHYLATED CATALYTIC SUBUNIT OF PROTEIN PHOSPHATASE 2A” (Medizinische Universität Wien, priority 2020, published 2023).

Molecular target: PP2Ac C-terminal peptides (L309, meL309, amL309, pT304, pY307) (Homo sapiens, UniProt P67775)
Assay: ELISA with PP2Ac C-terminal undecapeptides
Type: binding
Protocol: 7C10-C5 was tested for its specificity to the unmodified, methylated or amidated carboxyl group of Leu^309 at the carboxy-terminus of PP2Ac by ELISA with 3 different undecapeptides (11-mers) (FIG. 4). Methylated and amidated peptides were compared because at physiological pH the α-carboxyl-group of Leu^309 is negatively charged and either the methylation or amidation of the α-carboxyl-group neutralizes its negative charge. This allowed the inventors to discriminate between a specificity for the amidated charge-neutralized PP2Ac C-terminus or the carboxymethylated charge-neutralized PP2Ac C-terminus.
Specifically, flat-bottom Nunc-Immuno Medisorp 96-well ELISA plates (Thermo; 467320) were coated o/n at 4° C. with 50 μl of either a peptide of the sequence ac-HVTRRTPDYFL-OH (L309; unmodified) (SEQ ID NO:18) at a concentration of 2 μg/ml, a peptide of the sequence ac-HVTRRTPDYFL-CH3 (meL309; methylated) (SEQ ID NO:18) at a concentration of 2 μg/ml in TBS (137 mM NaCl (AppliChem, #131659, 2.7 mM KCl (AppliChem, #131494), 24.8 mM Tris (AppliChem, #A1086), pH 7.4 with HCl) or a peptide of the sequence ac-HVTRRTPDYFL-NH2 (amL309; amidated) (SEQ ID NO:18) at a concentration of 2 μg/ml in TBS. Of note, the “ac-” in the peptides described here and in other Examples refers to an acetylated N-terminus. Said acetylation neutralizes the positive charge at the N-terminus, and the free charged N-terminus is thereby removed.
Then, the wells were washed once with TBS, blocked with 200 μl of 2% bovine serum albumin (BSA) (Sigma, A9647) in TBS for 1 hour at RT and washed again once with TBS. […] Bound antibodies were detected colorimetrically by addition of 50 μl of 33 μg/ml […] (TMB) (Sigma, T2885) in 0.1 M sodium acetate pH 6.0 and 0.01% H2O2 (Sigma, H1009). The colorimetric reaction was stopped after 10 min by addition of 50 μl 0.5 M H2SO4, and measured at 450 nm and 560 nm with a Perkin Elmer VICTOR® Nivo™ microplate reader. The results from 560 nm read were subtracted from the 450 nm read. […]

B1: 7C10-C5: α-carboxymethylation specific mouse monoclonal IgG1 antibody from single clone hybridoma 7C10-C5 (DSM ACC3350) (antibody)
heavy: MYRMQLLSCIALSLALVTNSDVQLQESGPGLVKPSQSLSLTCSVTGYSITSGYYWNWIRQFPGNKLEWMGYISYDGSNNYNPSLKNRISITRDTSKNQFFLKLNSVTTEDTATYYCAGRFAYWGQGTLVTVSAAKTTAPSVYPLAPVCGDTTGSSVTLGCLVKGYFPEPVTLTWNSGSLSSGVHTFPAVLQSDLYTLSSSVTVTSSTWPSQSITCNVAHPASSTKVDKKIEPRGPTIKPCPPCKCPAPNLLGGPSVFIFPPKIKDVLMISLSPIVTCVVVDVSEDDPDVQISWFVNNVEVHTAQTQTHREDYNSTLRVVSALPIQHQDWMSGKEFKCKVNNKDLPAPIERTISKPKGSVRAPQVYVLPPPEEEMTKKQVTLTCMVTDFMPEDIYVEWTNNGKTELNYKNTEPVLDSDGSYFMYSKLRVEKKNWVERNSYSCSVVHEGLHNHHTTKSFSRTPGK
light: MDMRVPAQLLGLLLLWLSGARCDVLMTQTPLSLPVSLGDQASISCRSSQSIVHSNGNTYLEWYLQKPGQSPKLLIYKVSNRFSGVPDRFSGSGSGTDFTLKINRVEAEDLGVYYCFQGSHVPWTFGGGTKLEIKADAAPTVSIFPPSSEQLTSGGASVVCFLNNFYPKDINVKWKIDGSERQNGVLNSWTDQDSKDSTYSMSSTLTLTKDEYERHNSYTCEATHKTSTSPIVKSFNRNEC
modifications: Amino acid sequence of the recombinant 7C10-C5 heavy chain; Amino acid sequence of the recombinant 7C10-C5 light chain
Q: What does the source list for B1?
A: effect of concurrent Tyr307 phosphorylation on binding to carboxymethylated PP2Ac C-terminus: not significantly altered; detection difference carboxymethylated+Thr304 phosphorylated versus carboxymethylated peptide (at lower peptide concentrations (dilution series 8 μg/ml to 7.8125 ng/ml)): 4 fold; signal intensity α-carboxymethylated PP2Ac peptide when Thr304 is phosphorylated versus not phosphorylated (peptides at 2 μg/ml): 1.6 fold
